Test [1] has as its target Human chorionic gonadotropin (human) (UniProt P01215). Kind of test: MAB602 capture beads, flow cytometry; hCG 0.0 ng/mL, anti-AFP probe. For orientation: In flow cytometry, cells or beads pass a laser one at a time.
Test [2] addresses Alpha fetoprotein (UniProt P02771). Kind of test: anti-AFP capture beads, flow cytometry; AFP 1.0 ng/mL, anti-AFP probe.
Test [3] shares this target. The experiment in a line: multiplex sandwich, S10473 capture beads; AFP 31 ng/mL, no wash.
The target is the same in test [4]. The experiment in a line: multiplex sandwich, S10473 capture beads; AFP 62 ng/mL, washed.
Test [5] shares this target. Kind of test: multiplex sandwich, S10473 capture beads; AFP 1000 ng/mL, washed.
Test [6] deals with Neutravidin (deglycosylated avidin) (UniProt P02701). The experiment in a line: multiplex, Neutravidin bead 70/40 without peptide, flow cytometry.
The target of the next test is Peptide 4 …-biotin. The experiment in a line: single-analyte peptide bead, flow cytometry; MAB 384-Bodipy 15.5 ug/mL.
In test [7] the target is Peptide 5 …-biotin (human). The description is as above.
The target of a further test is Peptide 2 …-biotin. The description is as above.
The target of another test is Peptide 3 …-biotin. The test is described as above.
In a further test the target is Peptide 8 …-biotin. The description is as above.
The target of a further test is Peptide 6 …-biotin. The description is as above.
The target in the next test is Peptide 9 …-biotin. The description is as above.
The next test deals with Peptide 1 …-biotin. Described as above.
In the next test the target is Peptide 7 …-biotin. The test is described as above.
The target in test [8] is Neutravidin (deglycosylated avidin) (UniProt P02701). The experiment in a line: single-analyte, Neutravidin bead 70/50 without peptide, flow cytometry.
In test [9] the target is Human chorionic gonadotropin (human) (UniProt P01215). Kind of test: bead sandwich, flow cytometry; capture A3 beads, hCG 20.0 ug/mL.
In test [10] the target is Alpha fetoprotein (UniProt P02771). The experiment in a line: MAB602 capture beads, flow cytometry; AFP 10.0 ng/mL, anti-hCG probe.

Chain of UniProt P02771 (P02771 19-609 limits assumed): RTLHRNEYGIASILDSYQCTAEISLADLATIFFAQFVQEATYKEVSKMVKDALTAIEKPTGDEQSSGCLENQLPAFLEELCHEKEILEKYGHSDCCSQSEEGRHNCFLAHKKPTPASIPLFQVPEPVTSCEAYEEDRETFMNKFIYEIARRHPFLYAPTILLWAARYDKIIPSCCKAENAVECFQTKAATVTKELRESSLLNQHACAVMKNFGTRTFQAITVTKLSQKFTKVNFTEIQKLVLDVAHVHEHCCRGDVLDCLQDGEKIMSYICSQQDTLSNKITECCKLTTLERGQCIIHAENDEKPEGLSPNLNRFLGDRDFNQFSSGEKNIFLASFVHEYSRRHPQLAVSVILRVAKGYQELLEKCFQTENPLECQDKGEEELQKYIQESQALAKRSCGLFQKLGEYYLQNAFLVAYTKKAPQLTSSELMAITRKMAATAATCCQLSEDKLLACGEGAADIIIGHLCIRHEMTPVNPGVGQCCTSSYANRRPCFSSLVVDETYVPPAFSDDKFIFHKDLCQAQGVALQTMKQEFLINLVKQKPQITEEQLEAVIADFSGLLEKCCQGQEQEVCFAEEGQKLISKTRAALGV
Chain of UniProt P01215 (P01215 25-116, chain 1 of 2, other chains not shown): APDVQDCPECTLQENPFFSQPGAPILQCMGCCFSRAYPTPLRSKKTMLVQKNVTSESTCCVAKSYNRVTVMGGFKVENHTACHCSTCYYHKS
Chain of UniProt P02701 (P02701 25-152 limits assumed): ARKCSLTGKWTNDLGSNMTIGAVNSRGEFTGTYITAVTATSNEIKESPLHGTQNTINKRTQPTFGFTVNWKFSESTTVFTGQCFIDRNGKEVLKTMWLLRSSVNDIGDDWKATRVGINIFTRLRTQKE

Take “M20077 affinity purified polyclonal anti-AFP antibody, Bodipy FL-CASE labeled”: the MIF of Fm in [1] was found to be 72; in the test with Alpha fetoprotein [2], 98; with Alpha fetoprotein [3], 639; with Alpha fetoprotein [4], 814; in the test with Alpha fetoprotein [5], 1480.

On to MAB 384, Bodipy FL-X labeled (antibody), for which the MIF of Fm in [6] was 21; with Peptide 4 …-biotin, 57; in test [7], 1380; with Peptide 2 …-biotin, 57; in the test with Peptide 3 …-biotin, 47; in the test with Peptide 8 …-biotin, 73. Further, the MIF of Fm amounted to 43 with Peptide 6 …-biotin; 60 in the test with Peptide 9 …-biotin; 72 with Peptide 1 …-biotin; 42 in the test with Peptide 7 …-biotin; 66 in test [8].

Consider “AB633 affinity purified polyclonal anti-hCG antibody, Bodipy FL-CASE labeled”, for which the MIF of Fm turned out to be 3150 in test [9] and 47 with Alpha fetoprotein [10].

Source of the values: patent publication US20040059519A1.
